In PMC9282385, “Rapid self-test of unprocessed viruses of SARS-CoV-2 and its variants in saliva by portable wireless graphene biosensor”:

Legend:
[1] = target: SARS-CoV nucleocapsid protein (SARS-CoV, UniProt P59595 1-422); assay: […], room temperature; pH not stated; conditions: protein: commercial; chain copies: 2
SARS-CoV-2 spike RBD = SARS-CoV-2 spike RBD (SARS-CoV-2, UniProt P0DTC2 319-541)
SARS-CoV spike RBD = SARS-CoV spike RBD (SARS-CoV, UniProt P59594 306-527); assay: […], room temperature; pH not stated; conditions: protein: commercial

Chain of SARS-CoV nucleocapsid protein (P59595 whole entry): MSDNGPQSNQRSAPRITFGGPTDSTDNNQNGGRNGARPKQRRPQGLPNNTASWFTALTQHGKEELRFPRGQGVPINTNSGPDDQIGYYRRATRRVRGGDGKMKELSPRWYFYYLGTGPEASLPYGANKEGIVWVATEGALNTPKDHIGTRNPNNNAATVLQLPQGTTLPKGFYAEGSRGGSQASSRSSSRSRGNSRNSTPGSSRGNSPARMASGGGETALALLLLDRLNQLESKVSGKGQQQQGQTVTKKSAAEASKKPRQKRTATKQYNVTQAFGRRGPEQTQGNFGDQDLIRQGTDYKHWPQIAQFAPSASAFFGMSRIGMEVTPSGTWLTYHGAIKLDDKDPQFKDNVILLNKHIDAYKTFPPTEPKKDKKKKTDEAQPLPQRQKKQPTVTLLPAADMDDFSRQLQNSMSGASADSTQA

B1: Aptamer-N (structured_DNA)
DNA: GCTGGATGTCGCTTACGACAATATTCCTTAGGGGCACCGCTACATTGACACATCCAGC
B1: binds [1].

B2: Aptamer-S (structured_DNA)
DNA: CAGCACCGACCTTGTGCTTTGGGAGTGCTGGTCCAAGGGCGTTAATGGACA
B2: binds (SARS-CoV-2 spike RBD); binds (SARS-CoV spike RBD).
